Data: patent US20090098127A1 (MEDICAL RESEARCH FUND OF TEL AVIV SOURASKY MEDICAL CENTER, published 2009)

B1: Flag-ΔG-MSF-A (p3×Flag-ΔG-MSF-A product) (other)
chain: MKKSYSGGTRTSSGRLRRLGDSSGPALKRSFEVEEVETPNSTPPRRVQTPLLRATVASSTQKFQDLGVKNSEPSARHVDSLSQRSPKASLRRVELSGPKAAEPVSRRTELSIDISSKQVENAGAIGPSRFGLKRAEVLGHKTPEPAPRRTEITIVKPQESAHRRMEPPASKVPEVPTAPATDAAPKRVEIQMPKPAEAPTAPSPAQTLENSEPAPVSQLQSRLEPKPQPPVAEATPRSQEATEAAPSCVGDMADTPRDAGLKQAPASRNEKAPVDFGYVGIDSILEQMRRKAMKQGFEFNIMVVTLINTLFKSKISRKSVQPTSEERIPKTIEIKSITHDIEEKGVRMKLTVIDTPGFGDHINNENCWQPIMKFINDQYEKYLQEEVNINRKKRIPDTRVHCCLYFIPATGHSLRPLDIEFMKRLSKVVNIVPVIAKADTLTLEERVHFKQRITADLLSNGIDVYPQKEFDEDSEDRLVNEKFREMIPFAVVGSDHEYQVNGKRILGRKTKWGTIEVENTTHCEFAYLRDLLIRTHMQNIKDITSSIHFEAYRVKRLNEGSSAMANGVEEKEPEAPEM
notes: also called AG-MSF-A; not shown: N-terminal Flag tag from vector p3×Flag-myc-CMV-25
B2: Flag-ΔN-MSF-A (p3×Flag-ΔN-MSF-A product) (other)
chain: ALKRSFEVEEVETPNSTPPRRVQTPLLRATVASSTQKFQDLGVKNSEPSARHVDSLSQRSPKASLRRVELSGPKAAEPVSRRTELSIDISSKQVENAGAIGPSRFGLKRAEVLGHKTPEPAPRRTEITIVKPQESAHRRMEPPASKVPEVPTAPATDAAPKRVEIQMPKPAEAPTAPSPAQTLENSEPAPVSQLQSRLEPKPQPPVAEATPRSQEATEAAPSCVGDMADTPRDAGLKQAPASRNEKAPVDFGYVGIDSILEQMRRKAMKQGFEFNIMVVGQSGLGKSTLINTLFKSKISRKSVQPTSEERIPKTIEIKSITHDIEEKGVRMKLTVIDTPGFGDHINNENCWQPIMKFINDQYEKYLQEEVNINRKKRIPDTRVHCCLYFIPATGHSLRPLDIEFMKRLSKVVNIVPVIAKADTLTLEERVHFKQRITADLLSNGIDVYPQKEFDEDSEDRLVNEKFREMIPFAVVGSDHEYQVNGKRILGRKTKWGTIEVENTTHCEFAYLRDLLIRTHMQNIKDITSSIHFEAYRVKRLNEGSSAMANGVEEKEPEAPEM
notes: Deletion of the first 25 amino acids of MSF-A; also called N-terminal truncated form of MSF-A; not shown: N-terminal Flag tag from vector p3×FLAG-myc-CMV-25
B3: Flag-MSF-A (p3×Flag-MSF-A product, wild type) (other, not shown: small tags and cut ends)
chain: MKKSYSGGTRTSSGRLRRLGDSSGPALKRSFEVEEVETPNSTPPRRVQTPLLRATVASSTQKFQDLGVKNSEPSARHVDSLSQRSPKASLRRVELSGPKAAEPVSRRTELSIDISSKQVENAGAIGPSRFGLKRAEVLGHKTPEPAPRRTEITIVKPQESAHRRMEPPASKVPEVPTAPATDAAPKRVEIQMPKPAEAPTAPSPAQTLENSEPAPVSQLQSRLEPKPQPPVAEATPRSQEATEAAPSCVGDMADTPRDAGLKQAPASRNEKAPVDFGYVGIDSILEQMRRKAMKQGFEFNIMVVGQSGLGKSTLINTLFKSKISRKSVQPTSEERIPKTIEIKSITHDIEEKGVRMKLTVIDTPGFGDHINNENCWQPIMKFINDQYEKYLQEEVNINRKKRIPDTRVHCCLYFIPATGHSLRPLDIEFMKRLSKVVNIVPVIAKADTLTLEERVHFKQRITADLLSNGIDVYPQKEFDEDSEDRLVNEKFREMIPFAVVGSDHEYQVNGKRILGRKTKWGTIEVENTTHCEFAYLRDLLIRTHMQNIKDITSSIHFEAYRVKRLNEGSSAMANGVEEKEPEAPEM
notes: FLAG at the amino terminal of the recombinant protein; Expressed in HEK 293 or PC-3 cells and assayed in lysates; also called Flag-tagged MSF-A; recombinant MSF-A

Key:
[1] = biological target: T1, hypoxia-inducible factor 1, alpha subunit isoform 1 (HIF-1α), untagged (human, UniProt Q16665 1-826); test: IP with HIF-1α antibody, Flag immunoblot, HEK 293 cells
T1 construct: Stands for both endogenous HIF-1α (PC-3, CL-1, HEK 293) and the untagged wild-type protein expressed from pcDNA3.1-HIF-1α; also called HIF-1 alpha; pcDNA3.1-HIF-1α product
T1 sequence (Q16665 whole entry, canonical isoform): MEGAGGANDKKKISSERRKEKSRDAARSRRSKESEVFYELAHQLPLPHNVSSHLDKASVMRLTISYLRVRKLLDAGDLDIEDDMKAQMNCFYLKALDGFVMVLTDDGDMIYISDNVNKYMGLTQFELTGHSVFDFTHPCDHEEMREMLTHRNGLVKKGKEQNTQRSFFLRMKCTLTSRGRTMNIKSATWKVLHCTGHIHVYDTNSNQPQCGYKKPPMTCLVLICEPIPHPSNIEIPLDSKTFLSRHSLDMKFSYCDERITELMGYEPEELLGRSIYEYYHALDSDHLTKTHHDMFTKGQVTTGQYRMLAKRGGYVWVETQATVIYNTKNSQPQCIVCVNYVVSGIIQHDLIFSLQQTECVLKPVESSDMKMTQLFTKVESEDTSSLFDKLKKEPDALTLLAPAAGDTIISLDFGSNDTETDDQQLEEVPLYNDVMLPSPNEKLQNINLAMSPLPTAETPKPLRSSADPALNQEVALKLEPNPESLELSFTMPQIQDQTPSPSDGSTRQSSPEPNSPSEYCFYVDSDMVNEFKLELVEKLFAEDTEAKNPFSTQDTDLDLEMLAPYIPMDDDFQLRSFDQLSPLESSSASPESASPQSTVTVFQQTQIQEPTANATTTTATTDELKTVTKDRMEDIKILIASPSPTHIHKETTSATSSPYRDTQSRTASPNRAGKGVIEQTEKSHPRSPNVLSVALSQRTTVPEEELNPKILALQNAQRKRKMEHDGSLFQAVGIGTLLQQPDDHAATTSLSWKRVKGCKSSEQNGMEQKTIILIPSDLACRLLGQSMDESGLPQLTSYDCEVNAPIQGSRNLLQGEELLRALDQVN

HIF-1β = biological target: T2, HIF-1β (UniProt P27540 2-789, limits assumed); test: co-IP with anti-Flag antibody, HIF-1β immunoblot, HEK 293 cells
T2 construct: Endogenous protein in HEK 293 lysates; also called HIF-1β protein
T2 sequence (P27540 2-789 limits assumed): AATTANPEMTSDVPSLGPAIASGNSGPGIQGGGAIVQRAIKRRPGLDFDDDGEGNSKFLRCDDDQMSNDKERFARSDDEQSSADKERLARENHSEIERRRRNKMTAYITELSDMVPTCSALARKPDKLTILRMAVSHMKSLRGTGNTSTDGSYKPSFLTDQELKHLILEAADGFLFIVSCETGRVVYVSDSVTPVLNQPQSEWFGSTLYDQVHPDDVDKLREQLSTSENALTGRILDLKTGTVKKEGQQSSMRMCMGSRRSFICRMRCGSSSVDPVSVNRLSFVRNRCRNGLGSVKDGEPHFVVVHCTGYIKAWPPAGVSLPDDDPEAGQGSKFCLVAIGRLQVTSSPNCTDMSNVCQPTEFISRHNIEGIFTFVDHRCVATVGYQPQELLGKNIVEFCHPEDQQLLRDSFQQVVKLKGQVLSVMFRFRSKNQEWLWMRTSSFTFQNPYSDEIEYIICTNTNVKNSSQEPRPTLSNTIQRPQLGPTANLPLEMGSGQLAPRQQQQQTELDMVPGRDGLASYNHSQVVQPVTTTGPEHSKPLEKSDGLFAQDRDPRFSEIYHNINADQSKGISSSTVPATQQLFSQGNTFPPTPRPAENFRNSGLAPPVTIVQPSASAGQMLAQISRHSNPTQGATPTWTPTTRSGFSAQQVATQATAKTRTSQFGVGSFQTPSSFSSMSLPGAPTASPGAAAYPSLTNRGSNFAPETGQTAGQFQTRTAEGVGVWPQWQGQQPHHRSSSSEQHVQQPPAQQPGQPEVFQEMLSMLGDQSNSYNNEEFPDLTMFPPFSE
From the text: FIGS. 3a-f are autoradiograms illustrating HIF-1α immunoblotting of FLAG immunoprecipitates (IP) (FIG. 3b) or whole cell extracts (WCE) (FIG. 3a), FLAG immunoblotting of HIF-1α IP (FIG. 3d) or WCE (FIG. 3c), and HIF-1β immunoblotting of FLAG IP (FIG. 3f) or WCE (FIG. 3e). HEK 293 cells were transiently co-transfected with two of the following expression vectors: p3×Flag-cmv-25 (EV), pcdna3.1-HIF-1α (HIF-1α) or p3×Flag-MSF-A (MSF-A), and two days following transfection under normoxic conditions WCE or IP were subjected to immunoblot (IB) analysis. Lane 1-EV and HIF-1α; lane 2-MSF-A and HIF-1α.
To confirm the interaction between the HIF-1α and the MSF-A proteins, HEK 293 cells were transiently co-transfected with the p3×Flag-MSF-A and the pcDNA3.1-HIF-1α vectors, and were grown for 24 hours under normoxic conditions (i.e., conditions of 20% oxygen), following which whole cell extracts (WCE) were subjected to co-immunoprecipitation (IP) using anti-FLAG or anti-HIF-1α antibodies. Following IP, the proteins were subjected to SDS-PAGE and immunoblotting (IB) using the counterpart antibody. As is shown in FIGS. 3a-d, following transfection with both expression vectors (i.e., pcDNA3.1-HIF-1α and p3×Flag-MSF-A) immunoprecipitates generated using either the anti-HIF-1α antibody or the anti-Flag antibody included the reciprocal proteins, i.e., the Flag-MSF-A or HIF-1α proteins, respectively.

p300 co-activator = biological target: T3, p300 co-activator (UniProt Q09472 2-2414); test: co-IP with anti-Flag antibody, p300 immunoblot; association within the HIF-1α complex, may be indirect
T3 construct: Endogenous protein, detected with anti-p300 antibody (Santa Cruz); also called p300 protein
T3 sequence (Q09472 2-2414 limits assumed): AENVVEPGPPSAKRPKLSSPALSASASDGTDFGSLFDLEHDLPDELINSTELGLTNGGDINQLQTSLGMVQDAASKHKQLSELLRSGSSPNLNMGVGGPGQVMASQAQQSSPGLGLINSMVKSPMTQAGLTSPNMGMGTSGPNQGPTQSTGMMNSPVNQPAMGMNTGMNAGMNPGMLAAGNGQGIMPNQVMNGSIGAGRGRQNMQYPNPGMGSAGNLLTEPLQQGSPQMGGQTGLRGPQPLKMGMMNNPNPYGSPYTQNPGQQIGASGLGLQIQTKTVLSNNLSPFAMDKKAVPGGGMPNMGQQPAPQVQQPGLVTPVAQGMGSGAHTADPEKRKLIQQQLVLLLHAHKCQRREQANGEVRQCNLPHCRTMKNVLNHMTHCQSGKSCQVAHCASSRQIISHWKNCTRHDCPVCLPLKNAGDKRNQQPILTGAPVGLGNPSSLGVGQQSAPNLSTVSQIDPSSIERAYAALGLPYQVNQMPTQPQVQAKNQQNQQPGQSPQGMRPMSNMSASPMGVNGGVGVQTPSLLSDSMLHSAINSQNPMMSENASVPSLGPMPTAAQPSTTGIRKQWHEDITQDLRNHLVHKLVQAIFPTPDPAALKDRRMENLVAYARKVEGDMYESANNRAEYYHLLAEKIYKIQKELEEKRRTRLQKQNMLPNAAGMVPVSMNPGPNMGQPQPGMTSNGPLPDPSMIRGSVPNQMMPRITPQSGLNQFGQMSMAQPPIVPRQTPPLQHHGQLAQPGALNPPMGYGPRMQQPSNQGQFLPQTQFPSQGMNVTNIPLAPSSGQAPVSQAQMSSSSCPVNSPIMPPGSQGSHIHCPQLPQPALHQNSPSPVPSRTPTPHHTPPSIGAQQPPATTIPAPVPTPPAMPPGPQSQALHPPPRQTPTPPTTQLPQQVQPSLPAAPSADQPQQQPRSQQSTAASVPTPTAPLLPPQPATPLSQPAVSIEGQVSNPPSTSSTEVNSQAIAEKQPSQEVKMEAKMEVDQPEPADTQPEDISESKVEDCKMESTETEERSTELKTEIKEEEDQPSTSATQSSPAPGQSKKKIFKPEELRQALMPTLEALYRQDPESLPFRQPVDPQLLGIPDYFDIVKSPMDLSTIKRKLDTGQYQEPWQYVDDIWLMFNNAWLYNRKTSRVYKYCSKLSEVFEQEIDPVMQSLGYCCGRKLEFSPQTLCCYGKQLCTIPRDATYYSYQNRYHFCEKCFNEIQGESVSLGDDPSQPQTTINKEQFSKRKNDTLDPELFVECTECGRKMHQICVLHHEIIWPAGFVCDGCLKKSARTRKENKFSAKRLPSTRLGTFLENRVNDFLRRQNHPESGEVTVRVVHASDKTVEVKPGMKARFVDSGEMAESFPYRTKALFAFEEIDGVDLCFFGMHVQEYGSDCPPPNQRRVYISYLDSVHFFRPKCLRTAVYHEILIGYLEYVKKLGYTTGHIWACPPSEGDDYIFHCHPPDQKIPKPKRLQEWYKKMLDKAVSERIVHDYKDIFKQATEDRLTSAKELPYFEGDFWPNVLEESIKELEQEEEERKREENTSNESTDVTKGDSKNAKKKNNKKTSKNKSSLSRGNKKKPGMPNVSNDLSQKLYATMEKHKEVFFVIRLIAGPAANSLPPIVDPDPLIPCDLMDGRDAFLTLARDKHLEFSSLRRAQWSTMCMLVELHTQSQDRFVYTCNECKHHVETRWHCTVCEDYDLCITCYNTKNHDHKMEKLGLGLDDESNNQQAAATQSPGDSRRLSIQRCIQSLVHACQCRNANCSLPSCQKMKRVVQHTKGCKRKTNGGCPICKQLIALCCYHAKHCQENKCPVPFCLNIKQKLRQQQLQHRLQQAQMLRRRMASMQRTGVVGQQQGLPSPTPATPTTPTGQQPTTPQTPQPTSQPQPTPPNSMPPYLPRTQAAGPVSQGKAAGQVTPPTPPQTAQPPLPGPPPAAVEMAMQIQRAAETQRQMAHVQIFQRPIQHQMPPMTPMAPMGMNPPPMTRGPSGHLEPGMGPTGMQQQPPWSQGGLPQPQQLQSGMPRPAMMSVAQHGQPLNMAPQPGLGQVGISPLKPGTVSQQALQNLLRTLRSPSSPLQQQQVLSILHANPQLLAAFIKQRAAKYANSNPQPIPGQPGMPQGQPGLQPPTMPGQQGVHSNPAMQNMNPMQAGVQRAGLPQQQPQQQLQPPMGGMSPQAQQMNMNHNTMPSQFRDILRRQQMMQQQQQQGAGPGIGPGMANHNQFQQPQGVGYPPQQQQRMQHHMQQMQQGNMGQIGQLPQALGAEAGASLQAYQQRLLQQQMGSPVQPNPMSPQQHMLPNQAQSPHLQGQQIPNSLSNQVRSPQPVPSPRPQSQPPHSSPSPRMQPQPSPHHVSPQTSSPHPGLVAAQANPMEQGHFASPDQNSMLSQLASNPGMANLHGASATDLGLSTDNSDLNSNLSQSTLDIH
Description: The p300 co-activator is associated with HIF-1α and MSF-A proteins—To test the hypothesis that proteins, which are known to interact with the HIF-1α protein, such as the co-activator p300, are associated with MSF-A and HIF-1α, cells were co-transfected with the pcDNA3.1-HIF-1α and the p3×Flag-MSF-A expression vectors and IP experiments were performed using either anti-FLAG or anti-HIF-1α antibodies. As shown in FIGS. 5a-c, while the anti-HIF-1α antibody was capable of precipitating the p300 protein in both cells co-transfected with the pcDNA3.1-HIF-1α and the p3×Flag-cmv-25 expression vector alone and cells co-transfected with the pcDNA3.1-HIF-1α and the p3×Flag-MSF-A vectors, the anti-Flag antibody was capable of precipitating the p300 protein only in cells that were co-transfected with the pcDNA3.1-HIF-1α and the p3×Flag-MSF-A vectors.

[2] = biological target: T1, hypoxia-inducible factor 1, alpha …; test: cell-based or functional assay

| binding result [1] | binding result (HIF-1β) | binding result (p300 co-activator) | degradation half-life of HIF-1α (cycloheximide, PC-3-MSF-A cells against PC-3-Neo cells) [2] | half-life of HIF-1α protein (pulse-chase, PC-3-MSF-A cells against PC-3-Neo cells) [2] | luciferase activity (HRE reporter), hypoxia as compared to normoxia, PC-3 cells [2] | Binder |
| --- | --- | --- | --- | --- | --- | --- |
| binds | – | – | – | – | – | B1 |
| binds | – | – | – | – | – | B2 |
| – | no binding | binds | 40 min | ~45 min | 50 fold | B3 |
